We go through two molecules from US20190169308A1 (ALLIGATOR BIOSCIENCE, published 2019).

The term Kd denotes the free concentration of one partner at which half of the binding sites on the other are occupied at equilibrium, for simple one-to-one binding. A word on the EC50: it is the midpoint of the concentration-response curve. A word on the koff: it is the rate constant with which the complex falls apart. A lower koff goes with slow dissociation. As a reminder, the kon is the rate constant with which the complex forms.

Assay [1] addresses T1, 5T4 (SPR antigen) (UniProt Q13641 32-355, limits assumed, biotinylated on the MASS-1 platform).
T1 construct: also called biotinylated 5T4
T1 sequence (looked up): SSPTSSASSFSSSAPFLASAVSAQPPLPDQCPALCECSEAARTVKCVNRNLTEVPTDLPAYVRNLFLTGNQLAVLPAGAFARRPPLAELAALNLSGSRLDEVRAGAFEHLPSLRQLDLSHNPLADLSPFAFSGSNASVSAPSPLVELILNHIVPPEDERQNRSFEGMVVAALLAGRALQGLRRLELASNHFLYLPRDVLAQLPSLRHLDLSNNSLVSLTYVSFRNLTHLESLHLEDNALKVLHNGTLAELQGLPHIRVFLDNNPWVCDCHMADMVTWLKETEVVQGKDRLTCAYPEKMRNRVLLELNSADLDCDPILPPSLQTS
Put plainly: SPR MASS-1, biotinylated antigen on streptavidin chip, parental mAb.

In assay [2] the target is T2, human 5T4 on transfected cells (human, UniProt Q13641 32-420).
T2 construct: whole, on cells; also called B16-5T4; CHOh5T4
T2 sequence (looked up): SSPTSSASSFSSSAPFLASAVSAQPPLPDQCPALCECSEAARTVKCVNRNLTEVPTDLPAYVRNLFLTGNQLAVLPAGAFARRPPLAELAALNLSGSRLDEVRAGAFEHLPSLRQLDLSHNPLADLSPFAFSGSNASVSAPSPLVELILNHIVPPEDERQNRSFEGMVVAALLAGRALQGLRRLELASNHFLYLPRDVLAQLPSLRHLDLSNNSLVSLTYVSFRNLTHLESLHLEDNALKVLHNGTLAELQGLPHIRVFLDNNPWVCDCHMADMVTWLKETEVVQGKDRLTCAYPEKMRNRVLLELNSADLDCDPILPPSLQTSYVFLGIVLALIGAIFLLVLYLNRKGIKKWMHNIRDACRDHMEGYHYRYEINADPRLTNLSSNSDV
Kind of assay: flow cytometry, human 5T4-transfected CHO cells. The method, then: Analysis of 5T4 mAb binding with flow cytometry was performed using 5T4-transfected cell lines and as negative control, mock transfected cells. Three different transfected cell lines used were used for this study; B16, A9 and CHO, transfected either with a 5T4 construct or with an empty vector control construct. Cells were stained with 5T4 antibodies diluted in FACS buffer (PBS, 0.5% BSA and 0.02% NaN₃). […] Samples were analysed either on a FACSCalibur or a FACSverse (BD Biosciences, Heidelberg, Germany) and mean fluorescence intensity (MFI) determined.
In a new attempt to calculate EC50 with flow cytometry a 5T4 mAb dose response experiment was performed using CHO cells stably transfected with human 5T4.
A general note: Flow cytometry measures light scatter and fluorescence of single cells or particles in a stream.

Assay [3] addresses T2, human 5T4 on transfected cells. Put plainly: flow cytometry, 5T4-transfected B16 cells.
The target of assay [4] is T1, 5T4 (SPR antigen). Kind of assay: SPR MASS-1, biotinylated 5T4 on streptavidin chip, mAb injected (bivalent). The method, then: Binding kinetics of the 5T4-specific mAbs have been studied using two different SPR-based platforms, the Biacore 3000 (GE Healthcare) and the MASS-1 platform (Sierra Sensors). Briefly, 5T4 was captured at the sensor chip surface either via direct amine coupling (Biacore platform) or using a streptavidin coated chip and biotinylated 5T4 (MASS-1 platform). The different 5T4-specific mAbs were then injected over the chip in increasing concentrations and the association and dissociation rates studied in real time. A 1:1 Langmuir model was used for curve fitting.

The target of the next assay is T3, 5T4-Fc (human, UniProt Q13641 32-355, limits assumed).
T3 construct: obtained from Peter L. Stern, University of Manchester; also called h5T4-Fc; recombinant 5T4
T3 sequence (looked up): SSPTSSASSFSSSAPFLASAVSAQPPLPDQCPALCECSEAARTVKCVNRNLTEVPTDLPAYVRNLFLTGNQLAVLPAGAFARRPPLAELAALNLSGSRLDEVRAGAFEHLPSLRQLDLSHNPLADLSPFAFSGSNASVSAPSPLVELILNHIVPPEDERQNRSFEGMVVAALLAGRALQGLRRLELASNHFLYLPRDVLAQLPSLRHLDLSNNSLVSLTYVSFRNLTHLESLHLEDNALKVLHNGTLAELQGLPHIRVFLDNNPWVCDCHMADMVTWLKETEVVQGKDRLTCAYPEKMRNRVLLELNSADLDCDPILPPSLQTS
Put plainly: ELISA, coated 5T4-Fc. The procedure:
ELISA was performed using a standard protocol. Plates (#655074, Greiner Bio-One GmbH, Germany) were pre-coated with 0.5 μg/ml 5T4-Fc (obtained from Peter L. Stern, University of Manchester) overnight. 5T4 antibodies were diluted from 6 to 1.5×10⁻³ μg/ml in 1:4 dilutions and added in duplicates of 50 μl to each well. Binding was detected with rabbit anti-h kappa L-chain-HRP (P0129, Dako Denmark) and the ELISA was developed with SuperSignal ELISA PICO Chemiluminescent substrate (Thermo Scientific Pierce, Rockford, Ill. USA) for 2-10 minutes and read in an automated microplate based multi-detection reader (FLUOstar OPTIMA, Netherlands).

B1: 1210/1211 (antibody, V domains shown)
VH: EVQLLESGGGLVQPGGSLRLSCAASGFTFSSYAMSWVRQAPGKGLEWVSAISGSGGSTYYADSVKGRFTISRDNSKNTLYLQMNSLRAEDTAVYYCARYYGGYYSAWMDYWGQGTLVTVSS
VL: DIQMTQSPSSLSASVGDRVTITCRASQSISSYLNWYQQKPGKAPKLLIYAASSLQSGVPSRFSGSGSGTDFTLTISSLQPEDFATYYCQQTYGYLHTFGQGTKLEIK
For B1, in the assay with 5T4 (SPR antigen) [1], the Kd is 0.437 nM. The 50% effective concentration (EC50) in assay [2] was determined as 0.81 nM; in assay [3] it was 0.8 nM; with 5T4-Fc, 0.48 nM. Also, the koff with 5T4 (SPR antigen) [4] worked out at 0.00019 s⁻¹. Further, in the assay with 5T4 (SPR antigen) [4], the on-rate constant (kon) came to 510000 M⁻¹ s⁻¹.

B2: 1206/1207 (antibody, V domains shown)
VH: EVQLLESGGGLVQPGGSLRLSCAASGFTFSGSSMSWVRQAPGKGLEWVSSIYYSGSGTYYADSVKGRFTISRDNSKNTLYLQMNSLRAEDTAVYYCARYGRNVHPYNLDYWGQGTLVTVSS
VL: DIQMTQSPSSLSASVGDRVTITCRASQSISSYLNWYQQKPGKAPKLLIYAASSLQSGVPSRFSGSGSGTDFTLTISSLQPEDFATYYCQQGYYYLPTFGQGTKLEIK
As for B2, the EC50 in assay [2] was determined as 0.51 nM; in assay [3], 1.8 nM; in the assay with 5T4-Fc it was 0.64 nM. Besides, the koff with 5T4 (SPR antigen) [4] was 0.00013 s⁻¹. In addition, the on-rate (kon) with 5T4 (SPR antigen) [4] was 1.4e+06 M⁻¹ s⁻¹.
